Measured values reported in paper PMC10875708 (2024).

B1: Stearoyl-CoA desaturase (SCD1) [human (endogenous in HCT116)] / Sulfotransferase family 2B member 1 (SULT2B1) [human (endogenous in HCT116)] (parent complex)
chain 1: MPAHLLQDDISSSYTTTTTITAPPSRVLQNGGDKLETMPLYLEDDIRPDIKDDIYDPTYKDKEGPSPKVEYVWRNIILMSLLHLGALYGITLIPTCKFYTWLWGVFYYFVSALGITAGAHRLWSHRSYKARLPLRLFLIIANTMAFQNDVYEWARDHRAHHKFSETHADPHNSRRGFFFSHVGWLLVRKHPAVKEKGSTLDLSDLEAEKLVMFQRRYYKPGLLMMCFILPTLVPWYFWGETFQNSVFVATFLRYAVVLNATWLVNSAAHLFGYRPYDKNISPRENILVSLGAVGEGFHNYHHSFPYDYSASEYRWHINFTTFFIDCMAALGLAYDRKKVSKAAILARIKRTGDGNYKSG
chain 2: MDGPAEPQIPGLWDTYEDDISEISQKLPGEYFRYKGVPFPVGLYSLESISLAENTQDVRDDDIFIITYPKSGTTWMIEIICLILKEGDPSWIRSVPIWERAPWCETIVGAFSLPDQYSPRLMSSHLPIQIFTKAFFSSKAKVIYMGRNPRDVVVSLYHYSKIAGQLKDPGTPDQFLRDFLKGEVQFGSWFDHIKGWLRMKGKDNFLFITYEELQQDLQGSVERICGFLGRPLGKEALGSVVAHSTFSAMKANTMSNYTLLPPSLLDHRRGAFLRKGVCGDWKNHFTVAQSEAFDRAYRKQMRGMPTFPWDEDPEEDGSPDPEPSPEPEPKPSLEPNTSLEREPRPNSSPSPSPGQASETPHPRPS

Variants of: B1
Test: co-IP (IP: SCD1, IB: SULT2B1), band quantification; HCT116 cells; parent: 1; read off a plot

Question: How did the ratio to parent turn out when chain 1 F178G was run?
Answer: The ratio to parent was about 2.6.

Question: For chain 1 F178A, which ratio to parent is on record?
Answer: Its ratio to parent is about 2.4.

Question: How did the ratio to parent turn out when chain 1 S80E was run?
Answer: The ratio to parent was about 0.5.

Question: With chain 1 S80R as the variant, how does the ratio to parent read?
Answer: Its ratio to parent is about 0.35.

Question: With chain 1 S80F as the variant, how does the ratio to parent read?
Answer: The ratio to parent was about 0.4.

Question: How did the ratio to parent turn out when chain 1 H83M was run?
Answer: Its ratio to parent is about 1.2.
